From publication PMC5028754 (2016)

B1: full-length yeast Ddi1 (natural protein)
chain: MDLTISNELTGEIYGPIEVSEDMALTDLIALLQADCGFDKTKHDLYYNMDILDSNRTQSLKELGLKTDDLLLIRGKISNSIQTDAATLSDEAFIEQFRQELLNNQMLRSQLILQIPGLNDLVNDPLLFRERLGPLILQRRYGGYNTAMNPFGIPQDEYTRLMANPDDPDNKKRIAELLDQQAIDEQLRNAIEYTPEMFTQVPMLYINIEINNYPVKAFVDTGAQTTIMSTRLAKKTGLSRMIDKRFIGEARGVGTGKIIGRIHQAQVKIETQYIPCSFTVLDTDIDVLIGLDMLKRHLACVDLKENVLRIAEVETSFLSEAEIPKSFQEGLPAPTSVTTSSDKPLTPTKTSSTLPPQPGAVPALAPRTGMGPTPTGRSTAGATTATGRTFPEQTIKQLMDLGFPRDAVVKALKQTNGNAEFAASLLFQ
B2: Ddi1 UBL-RVP (1-325) (domain or fragment)
chain: MDLTISNELTGEIYGPIEVSEDMALTDLIALLQADCGFDKTKHDLYYNMDILDSNRTQSLKELGLKTDDLLLIRGKISNSIQTDAATLSDEAFIEQFRQELLNNQMLRSQLILQIPGLNDLVNDPLLFRERLGPLILQRRYGGYNTAMNPFGIPQDEYTRLMANPDDPDNKKRIAELLDQQAIDEQLRNAIEYTPEMFTQVPMLYINIEINNYPVKAFVDTGAQTTIMSTRLAKKTGLSRMIDKRFIGEARGVGTGKIIGRIHQAQVKIETQYIPCSFTVLDTDIDVLIGLDMLKRHLACVDLKENVLRIAEVETSFLSEAEIPK
B3: Ddi1 RVP-UBA (180-428) (domain or fragment)
chain: QQAIDEQLRNAIEYTPEMFTQVPMLYINIEINNYPVKAFVDTGAQTTIMSTRLAKKTGLSRMIDKRFIGEARGVGTGKIIGRIHQAQVKIETQYIPCSFTVLDTDIDVLIGLDMLKRHLACVDLKENVLRIAEVETSFLSEAEIPKSFQEGLPAPTSVTTSSDKPLTPTKTSSTLPPQPGAVPALAPRTGMGPTPTGRSTAGATTATGRTFPEQTIKQLMDLGFPRDAVVKALKQTNGNAEFAASLLFQ

Key:
bovine ubiquitin [1] = target: T1, bovine ubiquitin (bovine, UniProt P0CG53 1-76); experiment: ITC; one-site model, N=2
bovine ubiquitin [2] = target: T1, bovine ubiquitin; experiment: ITC

Row | Binder | Ka (bovine ubiquitin [1]) [M⁻¹] | Ka (bovine ubiquitin [2]) [M⁻¹]
1 | B1 | 3160 | 
2 | B2 |  | 3190
3 | B3 |  | 23400
